Measurements reported in publication PMC6697681, “The predominance of nucleotidyl activation in bacterial phosphonate biosynthesis” (Nature Communications, 2019).

Target: the molecule itself
Experiment: dynamic light scattering; 20 µl of freshly purified protein (8 mg/ml) at 20 °C, DynaPro NanoStar; self-association (oligomeric state)

B1: Tde1415 (Tde-PntC; two-domain protein with an N-terminal PntC and a C-terminal AEPT domain) from Treponema denticola (enzyme, Treponema denticola ATCC 35405)
chain: MIKQAVILAGGLGSRLKDKTKTMPKGFLEIGGTAIVEQSVQKLLAHGIEKIVIGTGHCNEYYDNLAKKYPAIITVKNENYANTGSMGTLEVCASFVNESFLLLESDLIYDSAGLFSLINDERKNLILASGATKSGDEVYLEADEKNCLTGLSKNRDALKNIFGELVGITKLTKSTLDKMCAYAKIHHSDLPKMEYEHALLEAAKTIPVAIKRIEYFVWREIDNEDHLEMAVKNIYPHIVENEKLRAVRREVLLNPGPATTTDSVKYAQVSADICPREKAFGDLMQWLCDELKLFALASETNPDEYETVMFGCSGTGADEVMVSSCVPDTGRLLVIDNGSYGARMAKIADIYKIPMDIFKSSTYEPLDLQKLEAEFATKKYTHLACVYHETTTGLLNPLHIICPMAKKYGMVTIVDAVSAYCGMPMDLKSLGIDFMASTSNKNIQGMAGVGFVICNKAELEKTKDYPMRNYYLNLYDQYAYFAKTHQTRFTPPVQTMYALRQAVLETKQETVQKRYERYTACWNILVAAIKKLGLKMLVKEEHQSHFITAILEPETPKYSFEALHDFAAEHSFTIYPGKLGNIDTFRIANIGDIQPEEMRRFTVKLKEYMNGIGVGV
notes: Tde1415 (Tde-PntC) from T. denticola ATCC 35405, NCBI NP_992021; N-terminal PntC cytidylyltransferase domain joined to a C-terminal AEP transaminase (AEPT) domain; predicted monomeric molecular weight ~70 kDa; gene subcloned without its stop codon as NdeI/NotI fragment into pET21b (pGH3000); Dimer by DLS; source: E. coli BL21(DE3), purified (Ni-NTA, HiTrap Q FF anion exchange)
  stoichiometry N: 2
